Laboratory results: IntAct's records for PubMed 18971339

B1: Interferon-induced, double-stranded RNA-activated protein kinase (Homo sapiens), P19525 (parent)
chain: MAGDLSAGFFMEELNTYRQKQGVVLKYQELPNSGPPHDRRFTFQVIIDGREFPEGEGRSKKEAKNAAAKLAVEILNKEKKAVSPLLLTTTNSSEGLSMGNYIGLINRIAQKKRLTVNYEQCASGVHGPEGFHYKCKMGQKEYSIGTGSTKQEAKQLAAKLAYLQILSEETSVKSDYLSSGSFATTCESQSNSLVTSTLASESSSEGDFSADTSEINSNSDSLNSSSLLMNGLRNNQRKAKRSLAPRFDLPDMKETKYTVDKRFGMDFKEIELIGSGGFGQVFKAKHRIDGKTYVIKRVKYNNEKAEREVKALAKLDHVNIVHYNGCWDGFDYDPETSDDSLESSDYDPENSKNSSRSKTKCLFIQMEFCDKGTLEQWIEKRRGEKLDKVLALELFEQITKGVDYIHSKKLIHRDLKPSNIFLVDTKQVKIGDFGLVTSLKNDGKRTRSKGTLRYMSPEQISSQDYGKEVDLYALGLILAELLHVCDTAFETSKFFTDLRDGIISDIFDKKEKTLLQKLLSKKPEDRPNTSEILRTLTVWKKSPEKNERHTC
partner: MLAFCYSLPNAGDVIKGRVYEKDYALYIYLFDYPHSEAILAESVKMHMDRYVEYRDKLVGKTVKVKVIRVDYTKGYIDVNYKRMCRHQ

Variants of: B1
Conditions: with pg041_vaccc OPG041, P20639

Row | Variant | effect of a mutation on the interaction
1 | D486V | decreasing interaction strength
